Source: the supplement of paper PMC10724198
± gives the standard deviation of the averaged measurements.

System: Saccharomyces cerevisiae
Assay: protein stability index of tFT-peptide fusion (C-terminal peptide) (PSI (0-1 scale)); higher = more stable (slower turnover)
Conditions: temperature: 30 C
Procedure: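 MPS profiling in S. cerevisiae of the yeast C-terminome library: the last 12 aa of each annotated ORF are fused to the C-terminus of a sfGFP-mCherry timer, after a GGGS linker. Cells are FACS-sorted into 8 mCherry/sfGFP bins and deep-sequenced. PSI runs from 0 (unstable) to 1 (stable); wild type and das1Δ backgrounds, two technical replicates each.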

[1] = genetic background: das1 deletion

| Sequence | protein stability index [1] | protein stability index (genetic background: wild type) |
| --- | --- | --- |
| SKGKNSESGGIF [PPR1 C-terminal 12 aa] | 0.699 ± 0.026 | 0.711 ± 0.054 |
| GLEFHDVEDRIA [PEX18 C-terminal 12 aa] | 0.7047 ± 0.0036 | 0.702 ± 0.013 |
| RLSRWFNETENI [MEI4 C-terminal 12 aa] | 0.756 ± 0.043 | 0.727 ± 0.096 |
| FTLVDYDKKFHK [ADH7 C-terminal 12 aa] | 0.702 ± 0.043 | 0.78 ± 0.087 |
| VTSGKAHFVLYN [SIM1 C-terminal 12 aa] | 0.695 ± 0.017 | 0.655 ± 0.017 |
| FFKQAEQEQADV [PRP11 C-terminal 12 aa] | 0.7024 ± 0.001 | 0.698 ± 0.0072 |
| EDDITVVVVRVD [PTC7 C-terminal 12 aa] | 0.646 ± 0.019 | 0.673 ± 0.02 |
| DWQNGQVEDSIP [PEX14 C-terminal 12 aa] | 0.711 ± 0.023 | 0.672 ± 0.0079 |
| KFAKANIGYVMG [RPN4 C-terminal 12 aa] | 0.4528 ± 0.0025 | 0.495 ± 0.011 |
| DATRREVMTERK [LSM2 C-terminal 12 aa] | 0.672 ± 0.014 | 0.688 ± 0.059 |
| PIQQSIAHINPP [LDS2 C-terminal 12 aa] | 0.718 ± 0.0075 | 0.6902 ± 0.0066 |
| KGRYVNSSKRRS [NOB1 C-terminal 12 aa] | 0.6955 ± 0.00021 | 0.6781 ± 0.004 |
| TDLPKWAQLDNS [PUS6 C-terminal 12 aa] | 0.729 ± 0.028 | 0.702 ± 0.026 |
| KETDKVNDENSI [MLP1 C-terminal 12 aa] | 0.708 ± 0.0044 | 0.756 ± 0.059 |
| DSHEDMKRRRLE [ROX3 C-terminal 12 aa] | 0.6865 ± 0.0045 | 0.695 ± 0.0078 |
| DYSFVNTFRDYE [HAL9 C-terminal 12 aa] | 0.697 ± 0.022 | 0.736 ± 0.053 |
| FGTWEIVIRLLS [RIM2 C-terminal 12 aa] | 0.382 ± 0.0062 | 0.123 ± 0.018 |

| Sequence | protein stability index [1] | protein stability index (genetic background: wild type) |
| --- | --- | --- |
| EHTMLAKAQGHD [XPT1 C-terminal 12 aa] | 0.71 ± 0.022 | 0.6558 ± 0.0011 |
| KKQESDNDANSK [CMC2 C-terminal 12 aa] | 0.703 ± 0.014 | 0.6755 ± 0.0052 |
| DDIANNQSICCV [YPT11 C-terminal 12 aa] | 0.649 ± 0.02 | 0.649 ± 0.018 |
| ANFECSSWKFAS [EFM5 C-terminal 12 aa] | 0.7167 ± 0.0049 | 0.646 ± 0.0085 |
| LSEEDLLDDESS [YPF1 C-terminal 12 aa] | 0.669 ± 0.042 | 0.698 ± 0.0078 |
| VDMKWGSFPIFQ [YPR1 C-terminal 12 aa] | 0.7256 ± 0.0028 | 0.7 ± 0.027 |
| TPSEDDDGAVEI [LSM3 C-terminal 12 aa] | 0.688 ± 0.0068 | 0.749 ± 0.062 |
| RSWDEFIGFKAY [CPA2 C-terminal 12 aa] | 0.745 ± 0.03 | 0.615 ± 0.041 |
| KNRFSNGRWGRR [SLD2 C-terminal 12 aa] | 0.701 ± 0.036 | 0.72 ± 0.015 |
| ASVIPGGCLGNL [ZPS1 C-terminal 12 aa] | 0.703 ± 0.018 | 0.685 ± 0.018 |
| IKLIDFNETSLT [MCM22 C-terminal 12 aa] | 0.68 ± 0.008 | 0.675 ± 0.0072 |
| TVGYGILKVMGF [PHO91 C-terminal 12 aa] | 0.659 ± 0.012 | 0.656 ± 0.009 |
| GIVRHLIDSVKL [ACS1 C-terminal 12 aa] | 0.695 ± 0.012 | 0.6884 ± 0.0041 |
| IIGIYYVLKWLR [BOS1 C-terminal 12 aa] | 0.3507 ± 0.0021 | 0.392 ± 0.0089 |
| NELSLRPATERI [YBL100W-A C-terminal 12 aa] | 0.6853 ± 0.0012 | 0.711 ± 0.015 |
| KDLFASIGKKKL [FYV8 C-terminal 12 aa] | 0.714 ± 0.011 | 0.682 ± 0.026 |
| LEDQDGSLYLNY [PFU1 C-terminal 12 aa] | 0.712 ± 0.011 | 0.662 ± 0.025 |
